In patent US20210070868A1:

Target: w.t. (UniProt P08581)
Assay: ELISA

- Kd: 0.446 nM
Substance: DN30
